Source: patent US9724388B2, “FGF-18 compound dosing regimen” (MERCK PATENT GMBH, priority 2014, dated 2017)
Where two headings read alike, the source gives them in different places.

Legend:
[1] = tested on: medial meniscal tear in the right knee joint; format: in vivo, rat; conditions: for overall morphology: three injections
Experimental: After the sacrifice, the right knee was removed and decalcified in 5% formic acid for 4-6 d before cutting in half in the frontal plane and embedding in paraffin wax. Three sections were cut in 200 μm steps, stained with toluidine blue, and analyzed using ImagePro PIus™ software (Media Cybernetics). In scoring the three sections of the joint, the worst-case scenario for the two halves on each slide was determined for the cartilage lesion as the cartilage degeneration width (μm). This reflects the areas of tibial cartilage lesion in which both chondrocyte and proteoglycan loss extend ≧50% of the cartilage thickness. The measurement was taken over the area of greatest lesion severity in each of the three zones across the tibial surface.
A treatment group Mean±SE for each score and measurement was determined.
Data was analyzed using a one-way analysis of variance (1-way ANOVA) or Kruskal-Wallis test (non-parametric), along with an appropriate multiple comparison post-test. Right knee caliper measurements were compared to left using a Student's t-test. Unless indicated, Bolder BioPATH, Inc. performs statistical analysis on raw (untransformed) data only. […] Significance for all tests was set at p≦0.05. Comparisons were made between each group and the vehicle control group, as well as between pairs.
Male Lewis rats underwent surgery (under anesthesia with isoflurane) to induce a medial meniscal tear in the right knee joint. Animals were dosed IA with vehicle or FGF-18 on one of two different regimens (see table below), then terminated on day 105. Knees had caliper measurements taken at baseline and days 21, 42, 56, 84, and 105. Serum was evaluated for α2macroglobulin levels at baseline and on days 21, and 105, as well as one week after the final dose (day 42 or 84). Right knees were collected for histopathology evaluation.

[2] = in vivo; cited from earlier work
[3] = tested on: ACLT+tMx model of instability-induced OA; assay: ACLT+tMx rat OA model, neo-formation of cartilaginous tissue (Safranin-O quantification); format: in vivo; conditions: for dose at which dose-dependent neo-formation of cartilaginous tissue became significant, medial tibia: FIG. 2b
Experimental: The anterior cruciate ligament transection with resection of the medial meniscus (ACLT+tMx) model of instability-induced OA was performed in male Lewis rats 10-15 weeks of age. Briefly, under anesthesia with isoflurane, the joint capsule of the right knee of each rat was opened, the anterior cruciate and meniscus fixating ligaments were sharply transected, the meniscus was removed and the capsule, muscles and skin closed by sutures. Animals were randomly allocated into 10 groups of n=10 each. The following dosages were investigated: 0, 0.3, 1, 3 and 10 μg per intra-articular injection. Groups 1-5 received one cycle of three single injections at weekly intervals, group 6-10 three single injections at monthly intervals. Intra-articular treatment was started three weeks post-surgery. At this time pathophysiological changes are already mainifest, e.g., cartilage matrix loss. Animals were euthanized 17 weeks after surgery and joints were investigated.

[4] = tested on: full-thickness defect in the articular cartilage of the trochlear groove; format: in vivo, rabbit; conditions: for ICRS gross cartilage score: mean +/- SE
Excerpt: 60 adult male, naïve, New Zealand White rabbits were used for this study. Animals were approximately 3-4 months of age. Rabbits underwent for creation of the cartilage defect in the right knee. A 2 mm by 6 mm full-thickness defect was made in the articular cartilage of the trochlear groove. The microfracture was created using 18 gauge needles; two 3 mm deep microfractures were made through the subchondral bone at the base of the defect, one proximally and one distally. Each microfracture hole was approximately 1.5 mm in diameter and the holes separated by 2 mm. The experiment consisted of the following six treatment groups, with 10 animals in each group for a total of 60 rabbits (Table 2). Rabbits in Groups 3, 4, 5 and 6 were treated with intra-articular rhFGF-18 in either one cycle of three weekly injections of 100 μg of rhFGF-18 (Group 3 and 5) or one cycle of three monthly injections 100 μg of rhFGF-18 (Group 4 and 6). All animals were euthanized and necropsied 6 months after surgery. [table]

[5] = Group 4: no microfracture, 100 μg monthly x3
[6] = Group 6: microfracture, 100 μg monthly x3
[7] = microfracture, monthly for three months, non-significant
[8] = microfracture, monthly for three months, significant
[9] = microfracture, weekly for three weeks, significant
[10] = no microfracture, monthly for three months, non-significant
[11] = no microfracture, monthly for three months, significant

B1: trFGF-18: recombinant truncated form of human FGF-18 (170 amino acids, SEQ ID NO: 2), produced in E. coli (protein)
chain: MEENVDFRIHVENQTRARDDVSRKQLRLYQLYSRTSGKHIQVLGRRISARGEDGDKYAQLLVETDTFGSQVRIKGKETEFYLCMNRKGKLVGKPDGTSKECVFIEKVLENNYTALMSAKYSGWYVGFTKKGRPRKGPKTRENQQDVHFMKRYPKGQPELQKPFKYTTVTK
modifications: Recombinant truncated FGF-18(trFGF-18)
With B1 the “extent of injury over the tibial surface (histopathology), particularly collagen damage” value ([1]; 10 μg IA, all regimens) was “generally increased”, the “severity of injury over the tibial surface (histopathology)” value ([1]; 10 μg IA, all regimens) was “reducing its severity” and the structural benefit ([1]; bi-weekly injection scheme, 10 μg IA) was “provides interesting structural benefits”. For the same molecule, the “structural benefit (joint scores, tibial cartilage degeneration width; FIGS. 3, 4, 5)” value ([1]; monthly injection scheme, 10 μg IA) was “highest”, the “side effects of treatment (histopathology)” value ([1]; rat, in vivo) was “cartilage hypertrophy, synovitis, and synovial fibrosis” and the “swelling in the treated knee” value ([1]; rat, in vivo) was “significantly increased”. For the same molecule, the overall morphology ([1]; once every 2 weeks (days 21, 35, 49)) was “good overall morphology”, the overall morphology ([1]; once monthly (days 21, 49, 77)) was “best overall morphology” and the “half-life in the joint” value [2] was “less than 24 hours”. The “dose at which dose-dependent neo-formation of cartilaginous tissue became significant, lateral tibia” value ([3]; independently of the injection regimen (3 i.a. injections weekly or monthly), FIG. 2a) was 1 μg/joint, the “dose at which dose-dependent neo-formation of cartilaginous tissue became significant, medial tibia” value ([3]; one monthly regimen) was 0.3 μg/joint and the “dose at which dose-dependent neo-formation of cartilaginous tissue became significant, medial tibia” value ([3]; one weekly regimen) was 1 μg/joint. The ICRS cartilage score [4, 5] was 2.1+/−0.3, the “animals with intercondylar groove filled with cartilage (nearly normal to slightly roughened or granular)” value [4, 5] was 6/9 and the “ICRS gross cartilage score” value ([4]; Group 5: microfracture, 100 μg weekly x3) was 1.9+/−0.3. The “animals with groove 50% filled up to nearly completely filled with granular to coarsely granular cartilage” value [4, 6] was 7/10, the “animals with intercondylar groove filled with cartilage” value [4, 6] was 3/10 and the “ICRS gross cartilage score” value [4, 6] was 2.4+/−0.2. The “decrease in total width of the groove lesion” value [4, 7] was 19%, the “decrease in width of the lesion with no viable cartilage” value (“decrease … with no viable cartilage” for short) [4, 7] was 69% and the “increase in central MFC thickness” value [4, 8] was 106%. For the same molecule, the “increase in summed scores” value [4, 8] was 76%, the “increases (toward normal) in all scored parameters and defect fill percent” value [4, 8] was 61-97% and the “increase in total width of the groove lesion” value ([4]; microfracture, weekly for three weeks) was 5%. For the same molecule, the “decrease … with no viable cartilage” value ([4]; microfracture, weekly for three weeks, non-significant) was 59%, the “increase in central MFC thickness” value [4, 9] was 112% and the “increase in summed scores” value [4, 9] was 53%. The “increases (toward normal) in all scored parameters and defect fill percent” value [4, 9] was 44-69%, the degeneration in sections ([4]; no microfracture, monthly for three months, all sections, generally focal) was “minimal to severe” and the “increase in other scores” value [4, 10] was 20-23%. The “increase in total width of the groove lesion” value [4, 10] was 36%, the “decrease … with no viable cartilage” value [4, 11] was 94% and the “increase in central MFC thickness” value [4, 11] was 120%. For the same molecule, the “increase in defect fill percentage” value [4, 11] was 48%, the “increase in the defect fill score” value [4, 11] was 49% and the “sections with cartilage hypertrophy” value ([4]; rabbit, in vivo) was “All sections”.
